Reference: patent US20240383984A1 (Genentech, published 2024)

What was measured:
[1] = target: T1, human FcRH3 (BIACORE analyte) (human, UniProt Q96P31 18-573, limits assumed); assay: SPR (BIACORE), TDB captured as ligand, FcRH3 as analyte, 25 °C, 1:1 binding model
T1 construct: also called huFcRH3
T1 sequence (looked up): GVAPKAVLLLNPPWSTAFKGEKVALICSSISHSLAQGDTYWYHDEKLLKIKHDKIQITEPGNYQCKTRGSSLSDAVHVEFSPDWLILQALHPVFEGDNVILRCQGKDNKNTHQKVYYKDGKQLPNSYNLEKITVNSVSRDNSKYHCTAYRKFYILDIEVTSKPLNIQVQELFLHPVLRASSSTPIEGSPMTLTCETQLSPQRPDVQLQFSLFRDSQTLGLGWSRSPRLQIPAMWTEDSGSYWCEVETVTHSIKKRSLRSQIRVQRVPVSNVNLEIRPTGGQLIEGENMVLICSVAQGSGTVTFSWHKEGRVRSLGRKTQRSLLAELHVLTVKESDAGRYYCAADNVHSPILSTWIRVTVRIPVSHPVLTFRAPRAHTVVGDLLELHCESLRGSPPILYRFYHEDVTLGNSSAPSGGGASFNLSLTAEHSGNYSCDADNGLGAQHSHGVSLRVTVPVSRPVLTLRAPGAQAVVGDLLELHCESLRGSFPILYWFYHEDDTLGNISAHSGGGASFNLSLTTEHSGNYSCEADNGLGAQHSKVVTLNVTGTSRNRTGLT

[2] = target: T2, cynomolgus FcRH5 protein fragment (soluble) (cynomolgus monkey); assay: BIACORE, hIgG capture, 1:1 model, monovalent
T2 construct: whole entry named; also called Cyno FcRH5 (BIACORE analyte)
T2 chain: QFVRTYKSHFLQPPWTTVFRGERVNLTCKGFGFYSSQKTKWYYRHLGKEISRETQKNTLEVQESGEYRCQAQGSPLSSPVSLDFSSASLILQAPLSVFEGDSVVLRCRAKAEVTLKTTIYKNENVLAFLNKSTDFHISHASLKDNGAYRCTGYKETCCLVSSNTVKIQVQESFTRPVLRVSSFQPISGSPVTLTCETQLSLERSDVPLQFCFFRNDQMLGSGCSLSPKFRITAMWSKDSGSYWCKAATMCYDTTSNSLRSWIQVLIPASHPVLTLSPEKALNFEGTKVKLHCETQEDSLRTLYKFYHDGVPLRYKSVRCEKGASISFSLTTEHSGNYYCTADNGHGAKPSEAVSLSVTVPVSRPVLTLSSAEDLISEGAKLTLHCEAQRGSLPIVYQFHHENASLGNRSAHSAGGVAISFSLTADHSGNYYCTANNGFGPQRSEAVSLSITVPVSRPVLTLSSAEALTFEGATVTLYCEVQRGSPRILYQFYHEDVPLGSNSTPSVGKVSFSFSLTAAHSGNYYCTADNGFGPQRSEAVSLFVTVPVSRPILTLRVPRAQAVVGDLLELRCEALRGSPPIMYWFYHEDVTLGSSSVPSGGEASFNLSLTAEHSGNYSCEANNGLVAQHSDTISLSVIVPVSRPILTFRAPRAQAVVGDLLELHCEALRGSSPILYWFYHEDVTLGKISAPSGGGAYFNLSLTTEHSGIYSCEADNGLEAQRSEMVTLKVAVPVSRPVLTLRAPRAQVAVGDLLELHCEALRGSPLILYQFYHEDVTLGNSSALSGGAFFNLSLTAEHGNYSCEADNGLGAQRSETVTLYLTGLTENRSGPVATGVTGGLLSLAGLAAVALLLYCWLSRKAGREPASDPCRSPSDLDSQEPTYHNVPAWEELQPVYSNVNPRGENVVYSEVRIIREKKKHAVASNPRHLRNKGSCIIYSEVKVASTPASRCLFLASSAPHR
Experimental: (§1) Briefly, a human IgG capture surface was generated on a Series S CM5 chip using amine coupling and the human IgG capture kit (GE Life Sciences, Piscataway, NJ). Test antibodies were then captured on flow cells 2, 3, or 4, with flow cell 1 used as a reference. An FcRH5 protein fragment was used as the analyte, with a flow rate of […]. Between injections the capture surface was regenerated by a 30-second injection of 3M magnesium chloride or 10 mM glycine, pH 1.5. Interactions were assessed at 25° C. in 10 mM HEPES pH7.4, 150 mM NaCl, and 0.05% Tween 20 (HBSP). Reference data from the reference flow cell and from injection of buffer alone were subtracted prior to kinetic analysis. Kinetic information was calculated by fitting data to a 1:1 binding model. Reference subtraction and data fitting were performed using BIAevaluation software (GE Life Sciences, Piscataway, NJ).
(§2) Kinetic characterization experiments were carried out (see Table 8). In these experiments, binding of soluble FcRH5 protein fragment to purified antibodies in human TDB antibody format was analyzed at six different non-zero concentrations (a 1:3 dilution series, one concentration injected twice as a replicate). Flow rate was set at 40 μl/min and association and dissociation monitored for 600 s.

[3] = target: T3, human FcRH5 protein fragment (soluble) (human, UniProt Q96RD9 16-851); assay: BIACORE, hIgG capture, 1:1 model, monovalent
T3 construct: whole entry named; also called soluble human FcRH5; Human FcRH5 (BIACORE analyte)
T3 sequence: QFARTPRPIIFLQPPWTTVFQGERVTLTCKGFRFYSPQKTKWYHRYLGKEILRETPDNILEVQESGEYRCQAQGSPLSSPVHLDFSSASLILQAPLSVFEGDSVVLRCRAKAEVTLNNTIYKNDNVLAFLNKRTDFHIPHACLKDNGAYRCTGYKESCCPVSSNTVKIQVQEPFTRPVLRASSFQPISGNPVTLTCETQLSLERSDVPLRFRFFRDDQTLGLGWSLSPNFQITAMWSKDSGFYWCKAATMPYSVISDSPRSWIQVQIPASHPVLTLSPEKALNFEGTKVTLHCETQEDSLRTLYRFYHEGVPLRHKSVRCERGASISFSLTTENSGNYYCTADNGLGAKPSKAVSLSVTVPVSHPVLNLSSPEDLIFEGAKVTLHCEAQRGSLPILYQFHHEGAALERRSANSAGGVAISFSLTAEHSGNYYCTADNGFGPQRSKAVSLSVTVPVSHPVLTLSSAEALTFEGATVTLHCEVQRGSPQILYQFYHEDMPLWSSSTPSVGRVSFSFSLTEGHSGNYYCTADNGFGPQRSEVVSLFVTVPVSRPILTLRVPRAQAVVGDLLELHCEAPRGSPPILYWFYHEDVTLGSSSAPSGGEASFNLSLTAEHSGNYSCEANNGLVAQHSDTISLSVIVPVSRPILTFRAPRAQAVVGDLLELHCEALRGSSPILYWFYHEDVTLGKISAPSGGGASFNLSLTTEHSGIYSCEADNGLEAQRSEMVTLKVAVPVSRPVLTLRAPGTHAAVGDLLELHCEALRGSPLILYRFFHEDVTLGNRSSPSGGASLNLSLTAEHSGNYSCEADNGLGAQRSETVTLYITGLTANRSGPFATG
Experimental: as §1, §2

B1: 1G7.v85/38E4.v1 TDB (bispecific antibody, V domains shown)
VH 1: EVQLVESGPGLVKPSETLSLTCTVSGFSLTRFGVHWVRQPPGKGLEWLGVIWRGGSTDYNAAFVSRLTISKDNSKNQVSLKLSSVTAADTAVYYCSNHYYGSSDYALDNWGQGTLVTVSS
VL 1: DIQMTQSPSSLSASVGDRVTITCKASQDVRNLVVWFQQKPGKAPKLLIYSGSYRYSGVPSRFSGSGSGTDFTLTISSLQPEDFATYYCQQHYSPPYTFGQGTKVEIK
VH 2: EVQLVQSGAEVKKPGASVKVSCKASGFTFTSYYIHWVRQAPGQGLEWIGWIYPENDNTKYNEKFKDRVTITADTSTSTAYLELSSLRSEDTAVYYCARDGYSRYYFDYWGQGTLVTVSS
VL 2: DIVMTQSPDSLAVSLGERATINCKSSQSLLNSRTRKNYLAWYQQKPGQSPKLLIYWTSTRKSGVPDRFSGSGSGTDFTLTISSLQAEDVAVYYCKQSFILRTFGQGTKVEIK
notes: knob-into-hole TDB; also called 1G7.v85 TDB; 1G7.v85 (TDB format)
Kd [1]: 92.4 nM
koff [1]: 0.00741 s⁻¹
kon [1]: 80200 M⁻¹ s⁻¹
Kd [2]: 6.76 nM
Kd [3]: 2.35 nM
